First the molecules themselves.
B1: 18F2.012 (antibody, human IgG1, kappa, N297G, V domains shown)
VH: not shown
VL: DIQMTQSPSSLSASIGDRVTITCRASQDLRNYLGWYQQKPGKAPKLLIYGASSLQSGVPSRFSGSGSGTEFTLTISSLQPEDFATYYCLQHNNYPFTFGPGTKVDIKR
B2: 6H1.006 (antibody, human IgG1, kappa, N297G, V domains shown)
VH: QVQLVESGGGVVQPGRSLRLSCAASGFTFSYFGMHWVRQAPGKGLEWVAVIWYDGSNKYYADSVKGRFTISRDNSKNTLYLQMNSLRAEDTAVYYCARDGTIFGVLLGDYWGQGTLVTVSS
VL: B1 VL with L29I, N31D
B3: 4B1.015 (antibody, human IgG1, kappa, N297G, V domains shown)
VH: not shown
VL: B1 VL with L29I, N31D, P100Q
B4: 6H1.008 (antibody, human IgG1, kappa, N297G, V domains shown)
VH: not shown
VL: B1 VL with L29I, N31D
B5: 4B1 (antibody, human IgG1, kappa, N297G, V domains shown)
VH: B2 VH with Y31N, K58E, Y59N, Q82H, A88V, E89A, L106V
VL: B1 VL with L29I, N31D, L46R
B6: 18F2.003 (antibody, human IgG1, kappa, N297G, V domains shown)
VH: B2 VH with Y31N, G55A, K58E, Y59N, S63A, Q82H, E89A, L106V
VL: B1 VL
B7: 18F2.006 (antibody, human IgG1, kappa, N297G, V domains shown)
VH: B2 VH with Y31N, G55A, K58E, Y59N, S63A, Q82H, E89A, L106V
VL: B1 VL with L46R
B8: 18F2.009 (antibody, human IgG1, kappa, N297G, V domains shown)
VH: not shown
VL: B1 VL
B9: 4B1.013 (antibody, human IgG1, kappa, N297G, V domains shown)
VH: B2 VH with Y31N, G55A, K58E, Y59N, Q82H, A88V, E89A, L106V
VL: B1 VL with L29I, N31D, P100Q
B10: 4B1.014 (antibody, human IgG1, kappa, N297G, V domains shown)
VH: B2 VH with Y31N, K58E, Y59N, S63A, Q82H, A88V, E89A, L106V
VL: B1 VL with L29I, N31D, P100Q
B11: 6H1.009 (antibody, human IgG1, kappa, N297G)
heavy: not shown
light: DIQMTQSPSSLSASIGDRVTITCRASQDIRDYLGWYQQKPGKAPKRLIYGASSLQSGVPSRFSGSGSGTEFTLTISSLQPEDFATYYCLQHNNYPFTFGQGTKVDIKRTVAAPSVFIFPPSDEQLKSGTASVVCLLNNFYPREAKVQWKVDNALQSGNSQESVTEQDSKDSTYSLSSTLTLSKADYEKHKVYACEVTHQGLSSPVTKSFNRGEC
B12: 4H9.004.001 (antibody, human IgG1, kappa, N297G)
heavy: not shown
light: B11 light with I15V, D28G, D31N, Y32E, R46L, A84V, N93S, I106V
B13: 4B1.011 (antibody, human IgG1, kappa, N297G, V domains shown)
VH: not shown
VL: B1 VL with L29I, N31D, L46R, P100Q
B14: 4H9.004.004 (antibody, human IgG1, kappa, N297G)
heavy: not shown
light: B11 light with I15V, D28G, D31N, Y32E, R46L, A84V, N93S, Q100P, I106V
B15: 18F2.010 (antibody, human IgG1, kappa, N297G, V domains shown)
VH: B2 VH with Y31N, G55A, K58E, Y59N, E89A, L106V
VL: B1 VL
B16: 18F2.007 (antibody, human IgG1, kappa, N297G, V domains shown)
VH: B2 VH with Y31N, G55A, K58E, Y59N, S63A, Q82H, E89A, L106V
VL: B1 VL with Q37H
B17: 18F2.004 (antibody, human IgG1, kappa, N297G, V domains shown)
VH: not shown
VL: B1 VL with Q37H
B18: 6H1.005 (antibody, human IgG1, kappa, N297G, V domains shown)
VH: not shown
VL: B1 VL with L29I, N31D, P100Q
B19: 6H1.004 (antibody, human IgG1, kappa, N297G, V domains shown)
VH: not shown
VL: B1 VL with L29I, N31D, P100Q
notes: also called iPS:359873; iPS:359875
B20: 6H1.007 (antibody, human IgG1, kappa, N297G, V domains shown)
VH: B2 VH with G55A
VL: B1 VL with L29I, N31D
B21: 6H1.002 (antibody, human IgG1, kappa, N297G, V domains shown)
VH: not shown
VL: B1 VL with L29I, N31D, L46R
B22: 18F2.002 (antibody, human IgG1, kappa, N297G, V domains shown)
VH: not shown
VL: B1 VL
B23: 4B1.016 (antibody, human IgG1, kappa, N297G, V domains shown)
VH: not shown
VL: B1 VL with L29I, N31D, P100Q
B24: 18F2 (antibody, human IgG1, kappa, N297G, V domains shown)
VH: B2 VH with Y31N, K58E, Y59N, Q82H, E89A, L106V
VL: B1 VL with Q37H, L46R
B25: 18F2.005 (antibody, human IgG1, kappa, N297G, V domains shown)
VH: not shown
VL: B1 VL with L46R
B26: 18F2.008 (antibody, human IgG1, kappa, N297G, V domains shown)
VH: not shown
VL: B1 VL with Q37H, L46R
B27: 6A5.004.007 (antibody, human IgG1, kappa, N297G, V domains shown)
VH: QVQLVESGGGVVQPGRSLRLSCAASGFSFSSYGMHWVRQPPGKGLEWVAAIWYDANNKYYADAVKGRFTISRDSSKNTLYLQMNSLRAEDTAVYYCARDRTIFGVVLEYWGQGTLVTVSS
VL: not shown
B28: 6A5.004.008 (antibody, human IgG1, kappa, N297G, V domains shown)
VH: B27 VH with A55G
VL: DIQMTQSPSSLSASVGDRVTITCQASQDITNYLNWYQQKPGKAPKLLIYDASNLEPGVPSRFSGSGSGTDFTLTISSLQPEDFATYYCQQYDDLFTFGPGTKVDIKR
B29: 5G12.006.001 (antibody, human IgG1, kappa, N297G)
heavy: not shown
light: DIQLTQSPSSLSASVGDRVTITCRASQTISRFLNWYQQKPGKAPELLIYVASSLQSGVPSRFSGSGSGTDFTLTISSLQPEDFATYYCQQSYSTLISFGQGTKLEIKRTVAAPSVFIFPPSDEQLKSGTASVVCLLNNFYPREAKVQWKVDNALQSGNSQESVTEQDSKDSTYSLSSTLTLSKADYEKHKVYACEVTHQGLSSPVTKSFNRGEC
B30: 5G12.005.001 (antibody, human IgG1, kappa, N297G, V domains shown)
VH: not shown
VL: DIQLTQSPSSLSASVGDRVTITCRASQTISRFLNWYQQKPGKAPKLLIYVASSLQSGVPSRFSGSGSGTDFTLTISSLQPEDFATYYCQQSYSTLLSFGQGTKLEIKR
B31: 5G12.006.002 (antibody, human IgG1, kappa, N297G, V domains shown)
VH: not shown
VL: B30 VL with K45E, L96I
B32: 5G12.006 (antibody, human IgG1, kappa, N297G, V domains shown)
VH: QVQLVESGGGVVQPGRSLRLSCTASGFTFSSYGIHWVRQAPGKGLEWVAVIWYDGSNKFHADSVKGRFTISRDNSKNTLYLQMNSLRAEDSAMYFCARGKVAGMPEAFEIWGQGTKVTVSS
VL: B30 VL with K45E, L96I, K107T

Changes are numbered by the printed parent chain.

This test deals with T1, Rhesus GIPR (rhesus, UniProt F7E1R9 22-466).
T1 sequence: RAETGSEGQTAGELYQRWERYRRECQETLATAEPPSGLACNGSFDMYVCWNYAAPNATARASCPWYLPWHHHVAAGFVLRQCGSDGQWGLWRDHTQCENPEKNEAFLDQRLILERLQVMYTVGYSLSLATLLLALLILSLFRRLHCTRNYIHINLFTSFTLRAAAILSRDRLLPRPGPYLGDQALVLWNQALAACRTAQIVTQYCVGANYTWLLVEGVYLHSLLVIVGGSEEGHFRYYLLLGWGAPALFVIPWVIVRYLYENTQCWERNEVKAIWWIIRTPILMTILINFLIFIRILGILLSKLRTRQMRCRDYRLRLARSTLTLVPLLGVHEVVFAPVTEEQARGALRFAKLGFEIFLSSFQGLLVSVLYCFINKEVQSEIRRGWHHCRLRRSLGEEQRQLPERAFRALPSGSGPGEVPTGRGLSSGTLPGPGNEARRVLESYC
Nature of the test: cell-based or functional assay.
Regarding B1, the “Rhesus GIPR CAMP Assay (Conc. mAb @ 60% Inhibition in nM)” value is 1.88 nM.

As to B2, the “Rhesus GIPR CAMP Assay (Conc. mAb @ 60% Inhibition in nM)” value is 0.47 nM.

On to B3, for which the “Rhesus GIPR CAMP Assay (Conc. mAb @ 60% Inhibition in nM)” value was 0.84 nM.

Turning to B4, the “Rhesus GIPR CAMP Assay (Conc. mAb @ 60% Inhibition in nM)” value was found to be 0.44 nM.

On to B5, for which the “Rhesus GIPR CAMP Assay (Conc. mAb @ 60% Inhibition in nM)” value worked out at 0.67 nM.

For the molecule B6, the “Rhesus GIPR CAMP Assay (Conc. mAb @ 60% Inhibition in nM)” value turned out to be 2.01 nM.

Consider B7, for which the “Rhesus GIPR CAMP Assay (Conc. mAb @ 60% Inhibition in nM)” value amounted to 0.52 nM.

For B8, the “Rhesus GIPR CAMP Assay (Conc. mAb @ 60% Inhibition in nM)” value came out at 1.28 nM.

As for B9, the “Rhesus GIPR CAMP Assay (Conc. mAb @ 60% Inhibition in nM)” value came to 1.35 nM.

With B10, the “Rhesus GIPR CAMP Assay (Conc. mAb @ 60% Inhibition in nM)” value turned out to be 0.95 nM.

In the case of B11, the “Rhesus GIPR CAMP Assay (Conc. mAb @ 60% Inhibition in nM)” value came to 0.15 nM.

As to B12, the “Rhesus GIPR CAMP Assay (Conc. mAb @ 60% Inhibition in nM)” value turned out to be 0.43 nM.

Take B13: the “Rhesus GIPR CAMP Assay (Conc. mAb @ 60% Inhibition in nM)” value worked out at 0.51 nM.

Turning to B14, the “Rhesus GIPR CAMP Assay (Conc. mAb @ 60% Inhibition in nM)” value amounted to 0.44 nM.

As for B15, the “Rhesus GIPR CAMP Assay (Conc. mAb @ 60% Inhibition in nM)” value turned out to be 1.75 nM.

B16: the “Rhesus GIPR CAMP Assay (Conc. mAb @ 60% Inhibition in nM)” value was 1.94 nM.

As for B17, the “Rhesus GIPR CAMP Assay (Conc. mAb @ 60% Inhibition in nM)” value worked out at 2.72 nM.

For the molecule B18, the “Rhesus GIPR CAMP Assay (Conc. mAb @ 60% Inhibition in nM)” value was determined as 0.49 nM.

As to B19, the “Rhesus GIPR CAMP Assay (Conc. mAb @ 60% Inhibition in nM)” value was determined as 0.79 nM.

With B20, the “Rhesus GIPR CAMP Assay (Conc. mAb @ 60% Inhibition in nM)” value worked out at 0.55 nM.

B21: the “Rhesus GIPR CAMP Assay (Conc. mAb @ 60% Inhibition in nM)” value came to 0.31 nM.

Turning to B22, the “Rhesus GIPR CAMP Assay (Conc. mAb @ 60% Inhibition in nM)” value was 2.23 nM.

As to B23, the “Rhesus GIPR CAMP Assay (Conc. mAb @ 60% Inhibition in nM)” value turned out to be 1.57 nM.

In the case of B24, the “Rhesus GIPR CAMP Assay (Conc. mAb @ 60% Inhibition in nM)” value amounted to 0.8 nM.

B25: the “Rhesus GIPR CAMP Assay (Conc. mAb @ 60% Inhibition in nM)” value amounted to 1.13 nM.

As for B26, the “Rhesus GIPR CAMP Assay (Conc. mAb @ 60% Inhibition in nM)” value came to 1.76 nM.

For the molecule B27, the “Rhesus GIPR CAMP Assay (Conc. mAb @ 60% Inhibition in nM)” value was found to be 0.61 nM.

As to B28, the “Rhesus GIPR CAMP Assay (Conc. mAb @ 60% Inhibition in nM)” value came to 0.82 nM.

On to B29, for which the “Rhesus GIPR CAMP Assay (Conc. mAb @ 60% Inhibition in nM)” value was 0.9 nM.

Consider B30, for which the “Rhesus GIPR CAMP Assay (Conc. mAb @ 60% Inhibition in nM)” value came out at 10.9 nM.

For B31, the “Rhesus GIPR CAMP Assay (Conc. mAb @ 60% Inhibition in nM)” value stood at 1 nM.

B32: the “Rhesus GIPR CAMP Assay (Conc. mAb @ 60% Inhibition in nM)” value was 0.8 nM.

Source of the values: US20250376529A1 (Amgen, published 2025).
